# Measured values taken from paper PMC5114622, “In vivo protein interaction network analysis reveals porin-localized antibiotic inactivation in Acinetobacter baumannii strain AB5075” (Nature Communications, 2016).
# Where “and” joins values, the source holds several entries; their conditions need not be identical. Identical values can stand only once.
# B1: Oxa23-HA-Strep (enzyme)
# chain: CTVQHNLINETPSQIVQGHNQVIHQYFDEKNTSGVLVIQTDKKINLYGNALSRANTEYVPASTFKMLNALIGLENQKTDINEIFKWKGEKRSFTAWEKDMTLGEAMKLSAVPVYQELARRIGLDLMQKEVKRIGFGNAEIGQQVDNFWLVGPLKVTPIQEVEFVSQLAHTQLPFSEKVQANVKNMLLLEESNGYKIFGKTGWAMDIKPQVGWLTGWVEQPDGKIVAFALNMEMRSEMPASIRNELLMKSLKQLNII
# notes: Oxa-23 of Acinetobacter baumannii AB5075; oxa-23 gene with the TAA stop codon omitted so that the HA-Strep tag of the pMMB vector follows; I take the same for this construct and that the signal peptide is cut on export; also called Oxa-23 with C-terminal HA-Strep tags; tagged Oxa-23; source: A. baumannii AB5075 WT cells transformed with pMMB-oxa23-HA-Strep (AB5075-pMMB-oxa23), in lysate; not …
# Molecular target: the molecule itself
# Assay: cross-linking + co-IP; AB5075-pMMB-oxa23 cells cross-linked with BDP-NHP, lysates denatured with SDS, anti-HA agarose IP; immunoblots with anti-HA, anti-OmpA, streptavidin; DMSO-treated control
protein,measurement,value
B1,stoichiometry N,2 and 4
